Results published in patent US20180057557A1 (University of Pennsylvania, published 2018).

B1: Anti-FSHRb51-65FSH-28z immunoreceptor (on primary human T cells) (other, not shown: large carriers)
chain: not shown
notes: Chimeric immunoreceptor on transduced primary human T cells; also called anti-FSHR (51-65)-28z IR; Anti-FSHR(51-65)-28z
B2: Anti-FSHRb33-53FSH-28z immunoreceptor (on primary human T cells) (other)
chain: not shown
notes: also called anti-FSHR (33-53)-28z IR; Anti-FSHR(33-53)-28z

Molecular target: T1, recombinant folate receptor alpha protein (immobilized) (UniProt P15328 25-233, limits assumed)
T1 construct: also called FRa
Experiment: binding of GFP+ IR T cells to immobilized recombinant protein (FIG. 3A)

T1 sequence (P15328 25-233 limits assumed): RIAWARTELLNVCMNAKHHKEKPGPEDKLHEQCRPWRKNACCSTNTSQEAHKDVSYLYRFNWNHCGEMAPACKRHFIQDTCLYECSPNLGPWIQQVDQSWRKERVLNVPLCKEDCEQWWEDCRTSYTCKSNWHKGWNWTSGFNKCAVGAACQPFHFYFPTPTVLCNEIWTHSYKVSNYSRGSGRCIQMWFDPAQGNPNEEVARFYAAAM

Binder | binding result
B1 | no binding
B2 | no binding
